Test results taken from patent US12312641B2, “Sensitivity marker for antibody-drug conjugate” (priority 2018, dated 2025).

Experiments:
[1] = system: patient-derived xenograft (PDX) model; test: Anti-tumor effect (TGI) in patient-derived xenograft models, 10 to 15 days after administration; format: in vivo, nu/nu mice; details: for Proportion of PDX models showing TGI of 75% or more: TGI at 10 to 15 days
Protocol: (§1) Mice: Female nu/nu mice (Envigo) aged 5-8 weeks were acclimatized under SPF conditions for 3 days or more prior to experimental use. Mice were fed with sterile solid feed (Teklad2919, Envigo) and given reverse osmosis membrane-treated water (containing 2 ppm chlorine).
(§2) Measurements and Calculation formula: long and short diameters of tumors were measured twice a week with an electronic digital caliper (CD-6PMX, Mitutoyo Corp.) and tumor volume (mm^3) was calculated using the following calculation formula: Tumor volume (mm^3)=0.52×Long diameter (mm)×[Short diameter (mm)]^2
(§3) Tumor fragments from each cancer patient were subcutaneously implanted into mice and passaged. The obtained tumors were used to subcutaneously implant tumor fragments, which were cut to approximately 5×5×5 mm^3, into the left abdomen of female nu/nu mice, thereby each patient-derived xenograft (PDX) model was created. Mice were randomly grouped when the mean transplanted tumor volume reached 150 to 300 mm^3 (Day 0). On the same day as grouping, the antibody-drug conjugate (1) was administered into the tail vein at a dose of 10 mg/kg. A formulation buffer was similarly administered at a volume of 10 mL/kg as a negative control.
Data on the amount of gene expression in each PDX model used in Example 4 were obtained by the next-generation RNA sequencing method using RNA extracted from formalin-fixed paraffin-embedded specimens of each tumor. After the obtained data were normalized to a FPKM value, 1 was added to FPKM, and the sum was transformed to a logarithmic (log2) to obtain a log2[FPKM+1] value (Table 6). The log2[FPKM+1] value was used to analyze the relationship between the anti-tumor activity of antibody-drug conjugate (1) in each PDX model (Table 5) and the amount of expression of the hTROP2 gene and the SLFN11 gene.

[2] = system: patient-derived xenograft (PDX) model; test: Anti-tumor effect (TGI) in patient-derived xenograft models, 21 days after administration; format: in vivo, nu/nu mice; details: for TGI (%): 10 mg/kg tail vein, 21 days after administration; for Proportion of PDX models showing TGI of 75% or more: TGI at 21 days
Protocol: as §1, §2
as §3, with “abdomen of the female nu/nu” for “abdomen of female nu/nu”, “negative control. Tumor growth inhibition rates (TGI (%)) were calculated according to the following calculation formula using each tumor volume 21 days after administration (Table 1). Tumor growth inhibition rate (%)=100×(1−Tf/mean Cf) • Tf: tumor volume 21 days after administration of antibody-drug conjugate (1) • mean Cf: arithmetic mean tumor volume 21 days after administration in negative control group mice” for “negative control.”
Data on the amount of gene expression in each PDX model used in Example 2 were obtained and normalized at Champions Oncology, Inc., thereby a RPKM value was obtained. To the RPKM value, 1 was added, and the sum was transformed to a logarithmic (log2) to obtain a log2[RPKM+1] value (Table 2). The log2[RPKM+1] value was used to analyze the relationship between the anti-tumor activity of antibody-drug conjugate (1) in each PDX model (Table 1) and the amount of expression of the hTROP2 gene and the SLFN11 gene. […] When TGI was 80% or more, the prediction rate decreased to an order of 60% only when the log2[RPKM+1] value of the hTROP2 gene exceeded 7.5 and the log2[RPKM+1] value of the SLFN11 gene exceeded 1.0 and was less than or equal to 2.

B1: antibody-drug conjugate (1): humanized anti-hTROP2 antibody (SEQ ID NO: 1 residues 20-470, SEQ ID NO: 2 residues 21-234) conjugated to the exatecan-derivative drug-linker via a thioether bond (conjugate, chains of the INN, looked up)
VH: QVQLVQSGAEVKKPGASVKVSCKASGYTFTTAGMQWVRQAPGQGLEWMGWINTHSGVPKYAEDFKGRVTISADTSTSTAYLQLSSLKSEDTAVYYCARSGFGSSYWYFDVWGQGTLVTVSS
VL: DIQMTQSPSSLSASVGDRVTITCKASQDVSTAVAWYQQKPGKAPKLLIYSASYRYTGVPSRFSGSGSGTDFTLTISSLQPEDFAVYYCQQHYITPLTFGQGTKLEIK
modifications: exatecan-derivative drug-linker
Proportion of PDX models showing TGI of 75% or more ([1]; log2[FPKM+1]: hTROP2 >7.0, SLFN11 >2, 7 models): 86% | Proportion of PDX models showing TGI of 75% or more ([1]; log2[FPKM+1]: hTROP2 >7.0, SLFN11 >3, 4 models): 100% | Proportion of PDX models showing TGI of 75% or more ([1]; log2[FPKM+1]: hTROP2 >7.0, SLFN11 All models, 16 models): 50% | Proportion of PDX models showing TGI of 75% or more ([1]; log2[FPKM+1]: hTROP2 All models, SLFN11 >1, 24 models): 54% | Proportion of PDX models showing TGI of 75% or more ([1]; log2[FPKM+1]: hTROP2 All models, SLFN11 >2, 18 models): 56% | Proportion of PDX models showing TGI of 75% or more ([1]; log2[FPKM+1]: hTROP2 All models, SLFN11 >3, 12 models): 58% | Proportion of PDX models showing TGI of 75% or more ([1]; log2[FPKM+1]: hTROP2 All models, SLFN11 All models, 35 models): 43% | Proportion of animal models showing TGI of 75% or more ([1]; log2[FPKM+1]: hTROP2 exceeds 7.0 and SLFN11 exceeds 3.0): 100% | TGI (%) ([2]; PDX model #1, Breast): 98.1% | TGI (%) ([2]; PDX model #2, Lung): 77.3% | TGI (%) ([2]; PDX model #3, Cholangiocarcinoma): 48.0% | TGI (%) ([2]; PDX model #4, Pancreatic): 48.5% | TGI (%) ([2]; PDX model #5, Colorectal): 65.0% | TGI (%) ([2]; PDX model #6, Breast): 95.5% | TGI (%) ([2]; PDX model #7, Breast): 94.7% | TGI (%) ([2]; PDX model #8, Head and neck): 55.6% | TGI (%) ([2]; PDX model #9, Head and neck): 99.1% | TGI (%) ([2]; PDX model #10, Lung): 97.7% | TGI (%) ([2]; PDX model #11, Lung): 95.4% | TGI (%) ([2]; PDX model #12, Breast): 95.8% | TGI (%) ([2]; PDX model #13, Lung): 70.0% | TGI (%) ([2]; PDX model #14, Breast): 90.1% | TGI (%) ([2]; PDX model #15, Cholangiocarcinoma): 61.2% | TGI (%) ([2]; PDX model #16, Colorectal): 52.7% | TGI (%) ([2]; PDX model #17, Breast): 62.6% | TGI (%) ([2]; PDX model #18, Lung): 18.4% | TGI (%) ([2]; PDX model #19, Lung): 50.3% | Proportion of PDX models showing TGI of 75% or more ([2]; log2[RPKM+1]: hTROP2 >6.5, SLFN11 >1, 10 models): 60% | Proportion of PDX models showing TGI of 75% or more ([2]; log2[RPKM+1]: hTROP2 >6.5, SLFN11 >2, 6 models): 83% | Proportion of PDX models showing TGI of 75% or more ([2]; log2[RPKM+1]: hTROP2 >6.5, SLFN11 >3, 3 models): 100% | Proportion of PDX models showing TGI of 75% or more ([2]; log2[RPKM+1]: hTROP2 >6.5, SLFN11 All models, 15 models): 47% | Proportion of PDX models showing TGI of 75% or more ([2]; log2[RPKM+1]: hTROP2 >7.0, SLFN11 >1, 9 models): 67% | Proportion of PDX models showing TGI of 75% or more ([2]; log2[RPKM+1]: hTROP2 >7.0, SLFN11 >2, 6 models): 83% | Proportion of PDX models showing TGI of 75% or more ([2]; log2[RPKM+1]: hTROP2 >7.0, SLFN11 >3, 3 models): 100% | Proportion of PDX models showing TGI of 75% or more ([2]; log2[RPKM+1]: hTROP2 >7.0, SLFN11 All models, 11 models): 55% | Proportion of PDX models showing TGI of 75% or more ([2]; log2[RPKM+1]: hTROP2 >7.5, SLFN11 >1, 6 models): 83% | Proportion of PDX models showing TGI of 75% or more ([2]; log2[RPKM+1]: hTROP2 >7.5, SLFN11 >2, 4 models): 100% | Proportion of PDX models showing TGI of 75% or more ([2]; log2[RPKM+1]: hTROP2 >7.5, SLFN11 >3, 2 models): 100% | Proportion of PDX models showing TGI of 75% or more ([2]; log2[RPKM+1]: hTROP2 >7.5, SLFN11 All models, 8 models): 63% | Proportion of PDX models showing TGI of 75% or more ([2]; log2[RPKM+1]: hTROP2 >8.0, SLFN11 >1, 5 models): 80% | Proportion of PDX models showing TGI of 75% or more ([2]; log2[RPKM+1]: hTROP2 >8.0, SLFN11 >2, 3 models): 100% | Proportion of PDX models showing TGI of 75% or more ([2]; log2[RPKM+1]: hTROP2 >8.0, SLFN11 >3, 2 models): 100% | Proportion of PDX models showing TGI of 75% or more ([2]; log2[RPKM+1]: hTROP2 >8.0, SLFN11 All models, 7 models): 57% | Proportion of PDX models showing TGI of 75% or more ([2]; log2[RPKM+1]: hTROP2 All models, SLFN11 >1, 13 models): 54% | Proportion of PDX models showing TGI of 75% or more ([2]; log2[RPKM+1]: hTROP2 All models, SLFN11 >2, 9 models): 67% | Proportion of PDX models showing TGI of 75% or more ([2]; log2[RPKM+1]: hTROP2 All models, SLFN11 >3, 5 models): 80% | Proportion of PDX models showing TGI of 75% or more ([2]; log2[RPKM+1]: hTROP2 All models, SLFN11 All models, 19 models): 47% | Prediction rate when TGI was 80% or more ([2]; log2[RPKM+1]: hTROP2 exceeded 7.5 and SLFN11 exceeded 1.0 and less than or equal to 2): ~60% | Proportion of animal models showing TGI of 75% or more ([2]; log2[RPKM+1]: hTROP2 exceeds 7.5 and SLFN11 exceeds 2.0, or hTROP2 exceeds 6.5 and SLFN11 exceeds 3.0): 100%
